For 108 variants, screen value results are on record in PMC12102759.

The chains are these.
B1: PIP5K1C peptide 640-655 (Phosphatidylinositol 4-phosphate 5-kinase type-1 gamma), 16-mer library wild type / TLN1 PTB (TLN1 Phosphotyrosine-binding (PTB) domain, residues 309-401) (parent)
chain 1: FPTDERSWVYSPLHYS
chain 2: GVSFFLVKEKMKGKNKLVPRLLGITKECVMRVDEKTKEVIQEWNLTNIKRWAASPKSFTLDFGDYQDGYYSVQTTEGEQIAQLIAGYIDIILK
B2: ATXN2 peptide 911-926 (Ataxin-2), 16-mer library wild type / PABPC1 PABC (PABPC1 PABC domain, residues 544-623) (parent)
chain 1: KSTLNPNAKEFNPRSF
chain 2: PLTASMLASAPPQEQKQMLGERLFPLIQAMHPTLAGKITGMLLEIDNSELLHMLESPESLRSKVDEAVAVLQAHQAKEAA

Variants of B1 are the subject of one assay. Kind of assay: proteomic peptide phage display deep mutational scan (ProP-PD DMS): M13 P8 16-mer library selected against immobilised GST-tagged bait for four days (rounds), NGS of the eluted pools per day and pseudo-replica. To be noted: with TLN1 PTB (TLN1 Phosphotyrosine-binding (PTB) domain, residues 309-401); bait immobilised on MaxiSorp plates (10 µg), library pre-cleared on GST, 2 h binding at 4 °C, five washes; one round per day, days 1-4; value from days 2 and 3; keep out of graded; scale: average fractional NGS count over selection days 2 and 3.
For the variant chain 1 FPTDERSWVYPPLHYS [chain 1 S11P], the screen value is 7.58e-05.
With chain 1 FPTDERSWVYLPLHYS [chain 1 S11L], the screen value came to 0.
Same read-out and setting: next, chain 1 FPTDERSWVYMPLHYS [chain 1 S11M]: 3.45e-05; chain 1 FPTDERSWVYAPLHYS [chain 1 S11A]: 7.18e-05; chain 1 FPTDERSWVYDPLHYS [chain 1 S11D]: 0.
Regarding chain 1 FPTDERSWVYIPLHYS [chain 1 S11I], the screen value came to 0.
The same measure, in the same setting: next, chain 1 FPTDERSFVYSPLHYS [chain 1 W8F]: 7.15e-05; chain 1 FPTDERSDVYSPLHYS [chain 1 W8D]: 0; chain 1 FPTDERSGVYSPLHYS [chain 1 W8G]: 0.
Regarding chain 1 FPTDERSWLYSPLHYS [chain 1 V9L], the screen value was found to be 0.000573.
For chain 1 FPTDERSWQYSPLHYS [chain 1 V9Q], the screen value was found to be 0.000257.
The same measure, in the same setting: next, chain 1 FPTDERSWIYSPLHYS [chain 1 V9I]: 5.76e-05.
In the case of chain 1 FPTDERSWMYSPLHYS [chain 1 V9M], the screen value was found to be 0.00044.
Take chain 1 FPTDERSWFYSPLHYS [chain 1 V9F]: the screen value came to 0.000141.
On the same count and under the same terms, next, chain 1 FPTDERSWHYSPLHYS [chain 1 V9H]: 0.000257; chain 1 FPTDERSWNYSPLHYS [chain 1 V9N]: 0.00995.
In the case of chain 1 FPTDERSWKYSPLHYS [chain 1 V9K], the screen value was found to be 0.000808.
Take chain 1 FPTDERSWRYSPLHYS [chain 1 V9R]: the screen value came out at 0.000353.
In the case of chain 1 FPTDERSWEYSPLHYS [chain 1 V9E], the screen value was 0.000929.
The same measure, in the same setting: next, chain 1 FPTDERSWYYSPLHYS [chain 1 V9Y]: 0.000288; chain 1 FPTDERSWAYSPLHYS [chain 1 V9A]: 0.000113.
Consider chain 1 FPTDERSWWYSPLHYS [chain 1 V9W], for which the screen value turned out to be 0.000872.
The same measure, in the same setting: next, chain 1 FPTDERSWDYSPLHYS [chain 1 V9D]: 0.000489; chain 1 FPTDERSWTYSPLHYS [chain 1 V9T]: 0.000147.
For chain 1 FPTDERSWGYSPLHYS [chain 1 V9G], the screen value was found to be 0.000185.
Regarding chain 1 FPTDERSWSYSPLHYS [chain 1 V9S], the screen value came to 0.000334.
Still for that read-out and setting: next, chain 1 FPTDERSWVYSPLHQS [chain 1 Y15Q]: 0.000147.
Turning to chain 1 FPTDERSWVYSPLHKS [chain 1 Y15K], the screen value was determined as 0.000895.
Same read-out and setting: next, chain 1 FPTDERSWVYSPLHDS [chain 1 Y15D]: 0.00126; chain 1 FPTDERSWVYSPLHAS [chain 1 Y15A]: 0.000656; chain 1 FPTDERSWVYSPLHSS [chain 1 Y15S]: 0.000401.
For chain 1 FPTDERSWVYSPLHGS [chain 1 Y15G], the screen value was found to be 0.00057.
In the case of chain 1 FPTDERSWVYSPLHTS [chain 1 Y15T], the screen value stood at 0.000245.
Turning to chain 1 FPTDERSWVYSPLHIS [chain 1 Y15I], the screen value was found to be 0.000186.
On the same count and under the same terms, next, chain 1 FPTDERSWVYSPLHMS [chain 1 Y15M]: 0.000141; chain 1 FPTDERSWVYSPLHLS [chain 1 Y15L]: 3.79e-05.
Consider chain 1 FPTDERSWVYSPLHNS [chain 1 Y15N], for which the screen value turned out to be 5.2e-05.
The same measure, in the same setting: next, chain 1 FPTDERSWVYSPLHPS [chain 1 Y15P]: 0.000167; chain 1 FPTDERSWVYSPLHVS [chain 1 Y15V]: 0.000186; chain 1 FPTDERSWVYSPLHHS [chain 1 Y15H]: 0.000526.
For the variant chain 1 FPTDERSWVYSPLHWS [chain 1 Y15W], the screen value was 0.000911.
On the same count and under the same terms, next, chain 1 FPTDERSWVYSPLHFS [chain 1 Y15F]: 0.00152; chain 1 FPTDERSWVYSPLHES [chain 1 Y15E]: 0.000347.
The same measure, in the same setting: next, chain 1 FPLDERSWVYSPLHYS [chain 1 T3L]: 0.00116; chain 1 FPHDERSWVYSPLHYS [chain 1 T3H]: 0.000204.
On the same count and under the same terms, next, chain 1 FPNDERSWVYSPLHYS [chain 1 T3N]: 8.2e-05.
As to chain 1 FPQDERSWVYSPLHYS [chain 1 T3Q], the screen value amounted to 0.000354.
Consider chain 1 FPDDERSWVYSPLHYS [chain 1 T3D], for which the screen value is 5.93e-05.
On the same count and under the same terms, next, chain 1 FPWDERSWVYSPLHYS [chain 1 T3W]: 0.000436; chain 1 FPVDERSWVYSPLHYS [chain 1 T3V]: 4.5e-05; chain 1 FPRDERSWVYSPLHYS [chain 1 T3R]: 0.000107.
Consider chain 1 FPSDERSWVYSPLHYS [chain 1 T3S], for which the screen value came to 0.00018.
With chain 1 FPIDERSWVYSPLHYS [chain 1 T3I], the screen value is 5.15e-05.
On the same count and under the same terms, next, chain 1 FPGDERSWVYSPLHYS [chain 1 T3G]: 9.69e-05; chain 1 FPADERSWVYSPLHYS [chain 1 T3A]: 8.91e-05.
On the same count and under the same terms, next, chain 1 FPPDERSWVYSPLHYS [chain 1 T3P]: 0.000173.
Same read-out and setting: next, chain 1 FPYDERSWVYSPLHYS [chain 1 T3Y]: 0.000733.
For the variant chain 1 FPMDERSWVYSPLHYS [chain 1 T3M], the screen value came out at 2.4e-05.
With chain 1 FPTDERSWVYSPLHYM [chain 1 S16M], the screen value was found to be 0.000225.
The same measure, in the same setting: next, chain 1 FPTDERSWVYSPLHYN [chain 1 S16N]: 0.000165.
The same measure, in the same setting: next, chain 1 FPTDERSWVYSPLHYF [chain 1 S16F]: 0.000114.
As for chain 1 FPTDERSWVYSPLHYR [chain 1 S16R], the screen value was found to be 0.000132.
As to chain 1 FPTDERSWVYSPLHYL [chain 1 S16L], the screen value is 0.000143.
Same read-out and setting: next, chain 1 FPTDERSWVYSPLHYI [chain 1 S16I]: 0.00119.
The same measure, in the same setting: next, chain 1 FPTDERSWVYSPLHYG [chain 1 S16G]: 0.00097; chain 1 FPTDERSWVYSPLHYQ [chain 1 S16Q]: 5.76e-05; chain 1 FPTDERSWVYSPLHYV [chain 1 S16V]: 0.000729.
On to chain 1 FPTDERSWVYSPLHYT [chain 1 S16T], for which the screen value was found to be 0.000518.
Regarding chain 1 FPTDERSWVYSPLHYE [chain 1 S16E], the screen value stood at 0.000308.
For chain 1 FPTDERSWVYSPLHYA [chain 1 S16A], the screen value stood at 0.000894.
Still for that read-out and setting: next, chain 1 FPTDERSWVYSPLHYH [chain 1 S16H]: 0.00034; chain 1 FPTDERSWVYSPLHYW [chain 1 S16W]: 3.45e-05; chain 1 FPTDERSWVYSPLHYP [chain 1 S16P]: 0.000199.
As to chain 1 FPTDERSWVYSPLHYY [chain 1 S16Y], the screen value turned out to be 0.000212.
For chain 1 FPTDERKWVYSPLHYS [chain 1 S7K], the screen value was 0.000214.
On the same count and under the same terms, next, chain 1 FPTDERLWVYSPLHYS [chain 1 S7L]: 0.00013; chain 1 FPTDERRWVYSPLHYS [chain 1 S7R]: 0.000434.
As to chain 1 FPTDERMWVYSPLHYS [chain 1 S7M], the screen value came to 0.000552.
Take chain 1 FPTDERYWVYSPLHYS [chain 1 S7Y]: the screen value came out at 0.000136.
In the case of chain 1 FPTDERNWVYSPLHYS [chain 1 S7N], the screen value came out at 3.76e-05.
On to chain 1 FPTDERTWVYSPLHYS [chain 1 S7T], for which the screen value turned out to be 0.000136.
Still for that read-out and setting: next, chain 1 FPTDERPWVYSPLHYS [chain 1 S7P]: 0.
The same measure, in the same setting: next, chain 1 FPTDERIWVYSPLHYS [chain 1 S7I]: 0.00143; chain 1 FPTDERWWVYSPLHYS [chain 1 S7W]: 0.000136.
On to chain 1 FPTDERVWVYSPLHYS [chain 1 S7V], for which the screen value came to 6.47e-05.
Still for that read-out and setting: next, chain 1 FPTDERSWVASPLHYS [chain 1 Y10A]: 0.000303; chain 1 FPTDERSWVKSPLHYS [chain 1 Y10K]: 0.00109; chain 1 FPTDERSWVRSPLHYS [chain 1 Y10R]: 0.000894.
With chain 1 FPTDERSWVISPLHYS [chain 1 Y10I], the screen value was determined as 0.000546.
Same read-out and setting: next, chain 1 FPTDERSWVNSPLHYS [chain 1 Y10N]: 0.000216; chain 1 FPTDERSWVPSPLHYS [chain 1 Y10P]: 0.000394.
With chain 1 FPTDERSWVMSPLHYS [chain 1 Y10M], the screen value worked out at 0.00032.
chain 1 FPTDERSWVSSPLHYS [chain 1 Y10S]: the screen value came out at 0.00342.
On to chain 1 FPTDERSWVWSPLHYS [chain 1 Y10W], for which the screen value stood at 8.84e-05.
On to chain 1 FPTDERSWVLSPLHYS [chain 1 Y10L], for which the screen value is 0.000358.
For the variant chain 1 FPTDERSWVHSPLHYS [chain 1 Y10H], the screen value was 6.93e-05.
Consider chain 1 FPTDERSWVQSPLHYS [chain 1 Y10Q], for which the screen value was found to be 0.000754.
Regarding chain 1 FPTDERSWVDSPLHYS [chain 1 Y10D], the screen value stood at 0.000521.
Same read-out and setting: next, chain 1 FPTDERSWVFSPLHYS [chain 1 Y10F]: 0.000662; chain 1 FPTDERSWVTSPLHYS [chain 1 Y10T]: 0.00117.
Consider chain 1 FPTDERSWVVSPLHYS [chain 1 Y10V], for which the screen value was found to be 0.000724.

A further assay covers variants of B2. The description is as above. The note with it: with PABPC1 PABC (PABPC1 PABC domain, residues 544-623); bait immobilised on MaxiSorp plates (10 µg), library pre-cleared on GST, 2 h binding at 4 °C, five washes; one round per day, days 1-4; value from days 2 and 3; scale: average fractional NGS count over selection days 2 and 3.
With chain 1 KSTLSPNAKEFNPRSF [chain 1 N5S], the screen value was 2.4e-05.
Still for that read-out and setting: next, chain 1 KSTLQPNAKEFNPRSF [chain 1 N5Q]: 0; chain 1 KSTLAPNAKEFNPRSF [chain 1 N5A]: 0.
Same read-out and setting: next, chain 1 KSTLDPNAKEFNPRSF [chain 1 N5D]: 0.
The same measure, in the same setting: next, chain 1 KSTLNPNVKEFNPRSF [chain 1 A8V]: 0.000222; chain 1 KSTLNPNIKEFNPRSF [chain 1 A8I]: 0.
Turning to chain 1 KSTLNPNRKEFNPRSF [chain 1 A8R], the screen value worked out at 0.
